Reference: patent publication US20020137019A1 (NEW YORK UNIVERSITY, published 2002)

T1: B42-AR18-500 (rat androgen receptor N-terminus, residues 18-500, fused to the B42 activation domain) (rat, UniProt P15207 18-500)
T1 construct: range 18-500; Yeast two-hybrid bait, galactose-inducible; also called AR18-500-AD; pJG4-5:AR18-500
T1 sequence (looked up): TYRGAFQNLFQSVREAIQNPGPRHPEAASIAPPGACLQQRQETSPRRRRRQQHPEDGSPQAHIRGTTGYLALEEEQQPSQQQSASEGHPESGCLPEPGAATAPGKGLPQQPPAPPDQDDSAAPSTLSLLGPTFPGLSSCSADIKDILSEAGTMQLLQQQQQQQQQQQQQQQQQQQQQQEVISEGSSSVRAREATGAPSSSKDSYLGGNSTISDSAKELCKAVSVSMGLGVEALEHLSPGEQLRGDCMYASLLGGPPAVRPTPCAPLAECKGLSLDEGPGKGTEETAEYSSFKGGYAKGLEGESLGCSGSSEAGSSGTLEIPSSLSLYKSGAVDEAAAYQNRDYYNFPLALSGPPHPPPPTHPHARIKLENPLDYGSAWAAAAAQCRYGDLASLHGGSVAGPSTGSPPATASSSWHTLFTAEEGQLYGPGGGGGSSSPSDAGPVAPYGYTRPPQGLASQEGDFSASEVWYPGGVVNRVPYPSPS

T2: ART-5 (LexA DNA binding domain fusion) (UniProt P0A7C2 1-202, limits assumed)
T2 construct: Clone from an LNCaP prostate cancer cell cDNA library
T2 sequence: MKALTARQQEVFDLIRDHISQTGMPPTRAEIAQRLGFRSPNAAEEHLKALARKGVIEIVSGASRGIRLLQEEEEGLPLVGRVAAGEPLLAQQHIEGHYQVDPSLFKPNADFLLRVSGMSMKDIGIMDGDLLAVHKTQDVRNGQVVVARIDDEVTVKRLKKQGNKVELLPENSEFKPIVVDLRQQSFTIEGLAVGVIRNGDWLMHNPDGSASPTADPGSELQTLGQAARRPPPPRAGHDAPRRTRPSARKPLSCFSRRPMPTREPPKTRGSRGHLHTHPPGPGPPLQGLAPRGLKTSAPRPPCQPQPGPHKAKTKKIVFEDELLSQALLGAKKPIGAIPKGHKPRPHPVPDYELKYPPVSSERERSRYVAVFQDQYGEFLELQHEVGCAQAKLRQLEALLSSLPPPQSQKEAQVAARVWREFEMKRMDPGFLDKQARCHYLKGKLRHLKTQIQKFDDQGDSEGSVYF

B1: LexA-ART-27 1-45 (other, UniProt P0A7C2 1-202, looked up)
chain: MKALTARQQEVFDLIRDHISQTGMPPTRAEIAQRLGFRSPNAAEEHLKALARKGVIEIVSGASRGIRLLQEEEEGLPLVGRVAAGEPLLAQQHIEGHYQVDPSLFKPNADFLLRVSGMSMKDIGIMDGDLLAVHKTQDVRNGQVVVARIDDEVTVKRLKKQGNKVELLPENSEFKPIVVDLRQQSFTIEGLAVGVIRNGDWLMATPPKRRAVEATGEKVLRYETFISDVLQRDLRKVLDHRDKVYEQ
notes: also called ART-27 derivative 1-45
B2: rat AR ligand binding domain (AR579-901) in pJG4-5 (receptor, UniProt P15207 579-901, looked up, not shown: large carriers)
chain: ASRNDCTIDKFRRKNCPSCRLRKCYEAGMTLGARKLKKLGNLKLQEEGENSSAGSPTEDPSQKMTVSHIEGYECQPIFLNVLEAIEPGVVCAGHDNNQPDSFAALLSSLNELGERQLVHVVKWAKALPGFRNLHVDDQMAVIQYSWMGLMVFAMGWRSFTNVNSRMLYFAPDLVFNEYRMHKSRMYSQCVRMRHLSQEFGWLQITPQEFLCMKALLLFSIIPVDGLKNQKFFDELRMNYIKELDRIIACKRKNPTSCSRRFYQLTKLLDSVQPIARELHQFTFDLLIKSHMVSVDFPEMMAEIISVQVPKILSGKVKPIYFHT
notes: range 579-901
B3: LexA-ART-27 68-157 (other, UniProt P0A7C2 1-202, looked up)
chain: MKALTARQQEVFDLIRDHISQTGMPPTRAEIAQRLGFRSPNAAEEHLKALARKGVIEIVSGASRGIRLLQEEEEGLPLVGRVAAGEPLLAQQHIEGHYQVDPSLFKPNADFLLRVSGMSMKDIGIMDGDLLAVHKTQDVRNGQVVVARIDDEVTVKRLKKQGNKVELLPENSEFKPIVVDLRQQSFTIEGLAVGVIRNGDWLYMQVDLGCNFFVDTVVPDTSRIYVALGYGFFLELTLAEALKFIDRKSSLLTELSNSLTKDSMNIKAHIHMLLEGLRELQGLQNFPEKPHH
B4: LexA-ART-27 127-157 (other, UniProt P0A7C2 1-202, looked up)
chain: MKALTARQQEVFDLIRDHISQTGMPPTRAEIAQRLGFRSPNAAEEHLKALARKGVIEIVSGASRGIRLLQEEEEGLPLVGRVAAGEPLLAQQHIEGHYQVDPSLFKPNADFLLRVSGMSMKDIGIMDGDLLAVHKTQDVRNGQVVVARIDDEVTVKRLKKQGNKVELLPENSEFKPIVVDLRQQSFTIEGLAVGVIRNGDWLDSMNIKAHIHMLLEGLRELQGLQNFPEKPHH
B5: ART-37 (LexA DNA binding domain fusion) (other)
chain: MKALTARQQEVFDLIRDHISQTGMPPTRAEIAQRLGFRSPNAAEEHLKALARKGVIEIVSGASRGIRLLQEEEEGLPLVGRVAAGEPLLAQQHIEGHYQVDPSLFKPNADFLLRVSGMSMKDIGIMDGDLLAVHKTQDVRNGQVVVARIDDEVTVKRLKKQGNKVELLPENSEFKPIVVDLRQQSFTIEGLAVGVIRNGDWLEFGTRARFTRGKSALLERALARPRTEVSLSAFALLSPSWYSTARAVFSVAELQSRLAALGRQVGARVLDALVAREKGARRETKVLGALLFVKGAVWKALFGKEADKLEQANDDARTFYIIEREPLINTYISVPKENSTLNCASFTAGIVEAVLTHSGFPAKVTAHWHKGTTLMIKFEEAVIARDRLEGR
notes: Clone from an LNCaP prostate cancer cell cDNA library
B6: B42-AR153-336 (receptor, rat, UniProt P15207 153-336, looked up, not shown: large carriers)
chain: LSSCSADIKDILSEAGTMQLLQQQQQQQQQQQQQQQQQQQQQQEVISEGSSSVRAREATGAPSSSKDSYLGGNSTISDSAKELCKAVSVSMGLGVEALEHLSPGEQLRGDCMYASLLGGPPAVRPTPCAPLAECKGLSLDEGPGKGTEETAEYSSFKGGYAKGLEGESLGCSGSSEAGSSGTLE
B7: B42-AR18-156 (receptor, rat, UniProt P15207 18-156, looked up, not shown: large carriers)
chain: TYRGAFQNLFQSVREAIQNPGPRHPEAASIAPPGACLQQRQETSPRRRRRQQHPEDGSPQAHIRGTTGYLALEEEQQPSQQQSASEGHPESGCLPEPGAATAPGKGLPQQPPAPPDQDDSAAPSTLSLLGPTFPGLSSC
B8: LexA-ART-27 1-45/127-157 (other, UniProt P0A7C2 1-202, looked up)
chain: MKALTARQQEVFDLIRDHISQTGMPPTRAEIAQRLGFRSPNAAEEHLKALARKGVIEIVSGASRGIRLLQEEEEGLPLVGRVAAGEPLLAQQHIEGHYQVDPSLFKPNADFLLRVSGMSMKDIGIMDGDLLAVHKTQDVRNGQVVVARIDDEVTVKRLKKQGNKVELLPENSEFKPIVVDLRQQSFTIEGLAVGVIRNGDWLMATPPKRRAVEATGEKVLRYETFISDVLQRDLRKVLDHRDKVYEQDSMNIKAHIHMLLEGLRELQGLQNFPEKPHH
notes: The two fragments were joined through a BamHI site
B9: LexA-ART-27 1-67 (other, UniProt P0A7C2 1-202, looked up)
chain: MKALTARQQEVFDLIRDHISQTGMPPTRAEIAQRLGFRSPNAAEEHLKALARKGVIEIVSGASRGIRLLQEEEEGLPLVGRVAAGEPLLAQQHIEGHYQVDPSLFKPNADFLLRVSGMSMKDIGIMDGDLLAVHKTQDVRNGQVVVARIDDEVTVKRLKKQGNKVELLPENSEFKPIVVDLRQQSFTIEGLAVGVIRNGDWLMATPPKRRAVEATGEKVLRYETFISDVLQRDLRKVLDHRDKVYEQLAKYLQLRNVIERLQEAKHSEL
notes: also called ART-27 derivative 1-67
B10: LexA-ART-27 46-157 (other, UniProt P0A7C2 1-202, looked up)
chain: MKALTARQQEVFDLIRDHISQTGMPPTRAEIAQRLGFRSPNAAEEHLKALARKGVIEIVSGASRGIRLLQEEEEGLPLVGRVAAGEPLLAQQHIEGHYQVDPSLFKPNADFLLRVSGMSMKDIGIMDGDLLAVHKTQDVRNGQVVVARIDDEVTVKRLKKQGNKVELLPENSEFKPIVVDLRQQSFTIEGLAVGVIRNGDWLLAKYLQLRNVIERLQEAKHSELYMQVDLGCNFFVDTVVPDTSRIYVALGYGFFLELTLAEALKFIDRKSSLLTELSNSLTKDSMNIKAHIHMLLEGLRELQGLQNFPEKPHH

What was measured:
[1] = target: B42-AR18-500 (rat androgen receptor N-terminus, residues 18-500, fused to the B42 activation domain) (rat) (UniProt P15207); assay: cell-based or functional assay
[2] = target: T1, B42-AR18-500 (rat androgen receptor …); assay: modified yeast two-hybrid, plate beta-galactosidase assay
[3] = target: T2, ART-5 (LexA DNA binding domain fusion); assay: as above
[4] = target: T3, ART-27 (full length, 1-157; LexA DNA binding domain fusion) (human, UniProt P0A7C2 1-202; Q9UBK9 1-157); assay: as above
T3 construct: also called LexA-ART-27; pEG202:ART-27

[5] = target: B5; assay: as above
[6] = target: T1, B42-AR18-500 (rat androgen receptor …); assay: modified yeast two-hybrid screen of a LexA-LNCaP cDNA library
[7] = target: T3, ART-27 (full length, 1-157; LexA DNA …); assay: modified yeast interaction-trap assay, liquid beta-galactosidase
[8] = target: T3, ART-27 (full length, 1-157; LexA DNA …); assay: modified yeast two-hybrid, liquid beta-galactosidase assay

LexA vector alone (from UniProt P0A7C2 1-202)
quantitative liquid beta-galactosidase assay (modified yeast two-hybrid) (unit of activity) [1]: 1

B1
binding result [2]: no binding

B2
binding result [3]: no binding
binding result [4]: no binding
binding result [5]: no binding

B3
binding result [2]: no binding

B4
binding result [2]: no binding

B5
binding result [6]: binds

B6
binding result [7]: binds

B7
binding result [8]: no binding

B8
binding result [2]: no binding

B9
binding result [2]: no binding

B10
binding result [2]: no binding
